The values that follow come from paper PMC4810302 (The Journal of Cell Biology, 2016).

In the assay the target is His-G3BP1 (human, UniProt Q13283 1-466). Briefly: pull-down.

Where no end group is shown, it is not given here.

Sequence of His-G3BP1 (Q13283 whole entry): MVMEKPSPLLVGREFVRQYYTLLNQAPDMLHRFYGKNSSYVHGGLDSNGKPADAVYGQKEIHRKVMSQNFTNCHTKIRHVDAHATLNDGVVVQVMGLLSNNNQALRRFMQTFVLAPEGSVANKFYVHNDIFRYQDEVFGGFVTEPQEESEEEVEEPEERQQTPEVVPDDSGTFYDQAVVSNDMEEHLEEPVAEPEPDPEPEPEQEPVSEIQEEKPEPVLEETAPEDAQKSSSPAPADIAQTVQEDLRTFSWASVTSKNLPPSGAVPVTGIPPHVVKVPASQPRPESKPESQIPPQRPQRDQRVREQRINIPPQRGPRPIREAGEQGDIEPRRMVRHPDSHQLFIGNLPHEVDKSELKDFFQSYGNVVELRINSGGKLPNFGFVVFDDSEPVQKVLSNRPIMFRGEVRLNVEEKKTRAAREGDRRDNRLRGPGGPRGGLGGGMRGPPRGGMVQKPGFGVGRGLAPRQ

Turning to YIFGDFSPDEFNQFFVTP-biotin [USP10_(8–25)WT peptide], the binding result is recorded as “binds”.
